Reference: US20210388110A1

target: extracellular matrix (BD Matrigel); assay: ECL on Matrigel-coated plate, relative to MRAH-G1d/MRAL-k0

ECM binding ratio (standard = 1) | Binder
50.4 | TR01H040-E2702GsKsc/H0610-E2704sEpsc/L0208-k0 (bispecific antibody, human IgG4 S228P, kappa, N297A) heavy 1: QVQLVESGGGLVQPGRSLRLSCAASGFTFSNAWMHWVRQAPGKGLEWVAQIKDKSQNYATYYAESVKGRFTISRADSKNSIYLQMNSLKTEDTAVYYCRYVHYSASYGVDAWGQGTTVTVSSASTKGPSVFPLAPCSRSTSESTAALGCLVKDYFPEPVTVSWNSGALTSGVHTFPAVLQSSGLYSLSSVVTVPSSSLGTKTYTCNVDHKPSNTKVDKRVESKYGPPCPPCPAPEFRGGPKVFLFPPKPKDTLMISRTPEVTCVVVDVSQEDPEVQFNWYVDGVEVHNAKTKPREEQFASTYRVVSVLTVLHQDWLNGKEYKCKVSNKGLPSSIEKTISKAKGQPREPQVYTLPPSQKEMTKNQVSLTCLVKGFYPSDIAVEWESNGQPENNYKTTPPVLDSDGSFFLYSKLTVDKSRWQEGNVFSCSVMHEALHNRYTQKSLSLSP heavy 2: QVQLVQSGAEVKKPGASVKVSCKASGYTFTDYEMHWIRQPPGQGLEWIGAIDGKTPDTAYSQKFKGRVTLTADKSTSTAYMELSSLTSEDTAVYYCTRFYSYTYWGQGTLVTVSSASTKGPSVFPLAPCSRSTSESTAALGCLVKDYFPEPVTVSWNSGALTSGVHTFPAVLQSSGLYSLSSVVTVPSSSLGTQTYTCNVDHKPSNTKVDKRVESKYGPPCPPCPAPEFRGGPKVFLFPPKPKDTLMISRTPEVTCVVVDVSQEDPEVQFNWYVDGVEVHNAKTKPREEQFASTYRVVSVLTVLHQDWLNGKEYKCKVSNKGLPSSIEKTISKAKGQPREPQVYTLPPSQEEMTKNQVSLTCLVKGFYPSDIAVEWESNGQPENNYKTTPPVLDSDGSFFLYSKLTVDKSRWQEGNVFSCSVMHEALHNHYTQESLSLSP light: DIVMTQSPLSLPVTPGEPASISCRSSQSPVHSNRNTYLHWYQQKPGQAPRLLIYKVSNRFWGVPDRFSGSGSGTDFTLKISRVEAEDVGVYYCYQGTQVPYTFGQGTKLEIKRTVAAPSVFIFPPSDEQLKSGTASVVCLLNNFYPREAKVQWKVDNALQSGNSQESVTEQDSKDSTYSLSSTLTLSKADYEKHKVYACEVTHQGLSSPVTKSFNRGEC
15.5 | TR01H040-E2702GsKsc/H0610-E2704sEpsc/L0211-k0 (bispecific antibody, human IgG4 S228P, kappa, N297A) heavy 1: QVQLVESGGGLVQPGRSLRLSCAASGFTFSNAWMHWVRQAPGKGLEWVAQIKDKSQNYATYYAESVKGRFTISRADSKNSIYLQMNSLKTEDTAVYYCRYVHYSASYGVDAWGQGTTVTVSSASTKGPSVFPLAPCSRSTSESTAALGCLVKDYFPEPVTVSWNSGALTSGVHTFPAVLQSSGLYSLSSVVTVPSSSLGTKTYTCNVDHKPSNTKVDKRVESKYGPPCPPCPAPEFRGGPKVFLFPPKPKDTLMISRTPEVTCVVVDVSQEDPEVQFNWYVDGVEVHNAKTKPREEQFASTYRVVSVLTVLHQDWLNGKEYKCKVSNKGLPSSIEKTISKAKGQPREPQVYTLPPSQKEMTKNQVSLTCLVKGFYPSDIAVEWESNGQPENNYKTTPPVLDSDGSFFLYSKLTVDKSRWQEGNVFSCSVMHEALHNRYTQKSLSLSP heavy 2: QVQLVQSGAEVKKPGASVKVSCKASGYTFTDYEMHWIRQPPGQGLEWIGAIDGKTPDTAYSQKFKGRVTLTADKSTSTAYMELSSLTSEDTAVYYCTRFYSYTYWGQGTLVTVSSASTKGPSVFPLAPCSRSTSESTAALGCLVKDYFPEPVTVSWNSGALTSGVHTFPAVLQSSGLYSLSSVVTVPSSSLGTQTYTCNVDHKPSNTKVDKRVESKYGPPCPPCPAPEFRGGPKVFLFPPKPKDTLMISRTPEVTCVVVDVSQEDPEVQFNWYVDGVEVHNAKTKPREEQFASTYRVVSVLTVLHQDWLNGKEYKCKVSNKGLPSSIEKTISKAKGQPREPQVYTLPPSQEEMTKNQVSLTCLVKGFYPSDIAVEWESNGQPENNYKTTPPVLDSDGSFFLYSKLTVDKSRWQEGNVFSCSVMHEALHNHYTQESLSLSP light: DIVMTQSPLSLPVTPGEPASISCRSSQPPVHSNRNTYLHWYQQKPGQAPRLLIYKVSNRFSGVPDRFSGSGSGTDFTLKISRVEAEDVGVYYCYQGTQVPYTFGQGTKLEIKRTVAAPSVFIFPPSDEQLKSGTASVVCLLNNFYPREAKVQWKVDNALQSGNSQESVTEQDSKDSTYSLSSTLTLSKADYEKHKVYACEVTHQGLSSPVTKSFNRGEC

target: Mab Select SuRe Ligand; assay: SPR (Biacore T200), SuRe ligand on CM5 chip, antibody 5 ug/mL

SuRe binding (RU) | Binder
2.7 RU | TR01H096-E2702GsKsc/L0011-k0 (antibody, human IgG4 S228P, kappa, N297A, V domains shown) VH: QVQLVESGGGLVQPGRSLRLSCAASGFTFSNAWMHWVRQAPGKGLEWVAQIKDKSQNYAGYYAESVKGRFTISRDDSKNSLYLQMNSLKTEDTAVYYCRYVHYAAGYGVDAWGQGTTVTVSS VL: DIVMTQSPLSLPVTPGEPASISCRSSQPLVHSNRNTYLHWYQQKPGQAPRLLIYKVSNRFSGVPDRFSGSGSGTDFTLKISRVEAEDVGVYYCGQGTQVPYTFGQGTKLEIKR
1.4 RU | TR01H103-E2702GsKsc/L0011-k0 (antibody, human IgG4 S228P, kappa, N297A, V domains shown) VH: QVQLVESGGGLVQPGRSLRLSCAASGFTFSNAWMHWVRQAPGKGLEWVAQIKDKSQNYATYGAESVKGRFTISRDDSKNSLYLQMNSLKTEDTAVYYCRYVHYAAGYGVDAWGQGTTVTVSS VL: DIVMTQSPLSLPVTPGEPASISCRSSQPLVHSNRNTYLHWYQQKPGQAPRLLIYKVSNRFSGVPDRFSGSGSGTDFTLKISRVEAEDVGVYYCGQGTQVPYTFGQGTKLEIKR
0.5 RU | TR01H102-E2702GsKsc/L0011-k0 (antibody, human IgG4 S228P, kappa, N297A, V domains shown) VH: QVQLVESGGGLVQPGRSLRLSCAASGFTFSNAWMHWVRQAPGKGLEWVAQIKDKSQNYATYFAESVKGRFTISRDDSKNSLYLQMNSLKTEDTAVYYCRYVHYAAGYGVDAWGQGTTVTVSS VL: DIVMTQSPLSLPVTPGEPASISCRSSQPLVHSNRNTYLHWYQQKPGQAPRLLIYKVSNRFSGVPDRFSGSGSGTDFTLKISRVEAEDVGVYYCGQGTQVPYTFGQGTKLEIKR
1 RU | TR01H104-E2702GsKsc/L0011-k0 (antibody, human IgG4 S228P, kappa, N297A, V domains shown) VH: QVQLVESGGGLVQPGRSLRLSCAASGFTFSNAWMHWVRQAPGKGLEWVAQIKDKSQNYATYIAESVKGRFTISRDDSKNSLYLQMNSLKTEDTAVYYCRYVHYAAGYGVDAWGQGTTVTVSS VL: DIVMTQSPLSLPVTPGEPASISCRSSQPLVHSNRNTYLHWYQQKPGQAPRLLIYKVSNRFSGVPDRFSGSGSGTDFTLKISRVEAEDVGVYYCGQGTQVPYTFGQGTKLEIKR
0.5 RU | TR01H101-E2702GsKsc/L0011-k0 (antibody, human IgG4 S228P, kappa, N297A, V domains shown) VH: QVQLVESGGGLVQPGRSLRLSCAASGFTFSNAWMHWVRQAPGKGLEWVAQIKDKSQNYAVYYAESVKGRFTISRDDSKNSLYLQMNSLKTEDTAVYYCRYVHYAAGYGVDAWGQGTTVTVSS VL: DIVMTQSPLSLPVTPGEPASISCRSSQPLVHSNRNTYLHWYQQKPGQAPRLLIYKVSNRFSGVPDRFSGSGSGTDFTLKISRVEAEDVGVYYCGQGTQVPYTFGQGTKLEIKR
0.8 RU | TR01H105-E2702GsKsc/L0011-k0 (antibody, human IgG4 S228P, kappa, N297A, V domains shown) VH: QVQLVESGGGLVQPGRSLRLSCAASGFTFSNAWMHWVRQAPGKGLEWVAQIKDKSQNYATYLAESVKGRFTISRDDSKNSLYLQMNSLKTEDTAVYYCRYVHYAAGYGVDAWGQGTTVTVSS VL: DIVMTQSPLSLPVTPGEPASISCRSSQPLVHSNRNTYLHWYQQKPGQAPRLLIYKVSNRFSGVPDRFSGSGSGTDFTLKISRVEAEDVGVYYCGQGTQVPYTFGQGTKLEIKR
0.6 RU | TR01H099-E2702GsKsc/L0011-k0 (antibody, human IgG4 S228P, kappa, N297A, V domains shown) VH: QVQLVESGGGLVQPGRSLRLSCAASGFTFSNAWMHWVRQAPGKGLEWVAQIKDKSQNYAQYYAESVKGRFTISRDDSKNSLYLQMNSLKTEDTAVYYCRYVHYAAGYGVDAWGQGTTVTVSS VL: DIVMTQSPLSLPVTPGEPASISCRSSQPLVHSNRNTYLHWYQQKPGQAPRLLIYKVSNRFSGVPDRFSGSGSGTDFTLKISRVEAEDVGVYYCGQGTQVPYTFGQGTKLEIKR
0 RU | TR01H106-E2702GsKsc/L0011-k0 (antibody, human IgG4 S228P, kappa, N297A, V domains shown) VH: QVQLVESGGGLVQPGRSLRLSCAASGFTFSNAWMHWVRQAPGKGLEWVAQIKDKSQNYATYPAESVKGRFTISRDDSKNSLYLQMNSLKTEDTAVYYCRYVHYAAGYGVDAWGQGTTVTVSS VL: DIVMTQSPLSLPVTPGEPASISCRSSQPLVHSNRNTYLHWYQQKPGQAPRLLIYKVSNRFSGVPDRFSGSGSGTDFTLKISRVEAEDVGVYYCGQGTQVPYTFGQGTKLEIKR
0.4 RU | TR01H108-E2702GsKsc/L0011-k0 (antibody, human IgG4 S228P, kappa, N297A, V domains shown) VH: QVQLVESGGGLVQPGRSLRLSCAASGFTFSNAWMHWVRQAPGKGLEWVAQIKDKSQNYATYTAESVKGRFTISRDDSKNSLYLQMNSLKTEDTAVYYCRYVHYAAGYGVDAWGQGTTVTVSS VL: DIVMTQSPLSLPVTPGEPASISCRSSQPLVHSNRNTYLHWYQQKPGQAPRLLIYKVSNRFSGVPDRFSGSGSGTDFTLKISRVEAEDVGVYYCGQGTQVPYTFGQGTKLEIKR
0.1 RU | TR01H097-E2702GsKsc/L0011-k0 (antibody, human IgG4 S228P, kappa, N297A, V domains shown) VH: QVQLVESGGGLVQPGRSLRLSCAASGFTFSNAWMHWVRQAPGKGLEWVAQIKDKSQNYALYYAESVKGRFTISRDDSKNSLYLQMNSLKTEDTAVYYCRYVHYAAGYGVDAWGQGTTVTVSS VL: DIVMTQSPLSLPVTPGEPASISCRSSQPLVHSNRNTYLHWYQQKPGQAPRLLIYKVSNRFSGVPDRFSGSGSGTDFTLKISRVEAEDVGVYYCGQGTQVPYTFGQGTKLEIKR
1.4 RU | TR01H107-E2702GsKsc/L0011-k0 (antibody, human IgG4 S228P, kappa, N297A, V domains shown) VH: QVQLVESGGGLVQPGRSLRLSCAASGFTFSNAWMHWVRQAPGKGLEWVAQIKDKSQNYATYQAESVKGRFTISRDDSKNSLYLQMNSLKTEDTAVYYCRYVHYAAGYGVDAWGQGTTVTVSS VL: DIVMTQSPLSLPVTPGEPASISCRSSQPLVHSNRNTYLHWYQQKPGQAPRLLIYKVSNRFSGVPDRFSGSGSGTDFTLKISRVEAEDVGVYYCGQGTQVPYTFGQGTKLEIKR
1.6 RU | TR01H098-E2702GsKsc/L0011-k0 (antibody, human IgG4 S228P, kappa, N297A, V domains shown) VH: QVQLVESGGGLVQPGRSLRLSCAASGFTFSNAWMHWVRQAPGKGLEWVAQIKDKSQNYAPYYAESVKGRFTISRDDSKNSLYLQMNSLKTEDTAVYYCRYVHYAAGYGVDAWGQGTTVTVSS VL: DIVMTQSPLSLPVTPGEPASISCRSSQPLVHSNRNTYLHWYQQKPGQAPRLLIYKVSNRFSGVPDRFSGSGSGTDFTLKISRVEAEDVGVYYCGQGTQVPYTFGQGTKLEIKR
-0.2 RU | TR01H095-E2702GsKsc/L0011-k0 (antibody, human IgG4 S228P, kappa, N297A, V domains shown) VH: QVQLVESGGGLVQPGRSLRLSCAASGFTFSNAWMHWVRQAPGKGLEWVAQIKDKSQNYAFYYAESVKGRFTISRDDSKNSLYLQMNSLKTEDTAVYYCRYVHYAAGYGVDAWGQGTTVTVSS VL: DIVMTQSPLSLPVTPGEPASISCRSSQPLVHSNRNTYLHWYQQKPGQAPRLLIYKVSNRFSGVPDRFSGSGSGTDFTLKISRVEAEDVGVYYCGQGTQVPYTFGQGTKLEIKR
2.2 RU | TR01H109-E2702GsKsc/L0011-k0 (antibody, human IgG4 S228P, kappa, N297A, V domains shown) VH: QVQLVESGGGLVQPGRSLRLSCAASGFTFSNAWMHWVRQAPGKGLEWVAQIKDKSQNYATYVAESVKGRFTISRDDSKNSLYLQMNSLKTEDTAVYYCRYVHYAAGYGVDAWGQGTTVTVSS VL: DIVMTQSPLSLPVTPGEPASISCRSSQPLVHSNRNTYLHWYQQKPGQAPRLLIYKVSNRFSGVPDRFSGSGSGTDFTLKISRVEAEDVGVYYCGQGTQVPYTFGQGTKLEIKR
